According to patent publication US7375083B2, “Pharmaceutical compositions for prevention of overdose or abuse” (Shire LLC, priority 2003, dated 2008):
Where a SMILES comes first, the peptide text is derived from it. The star is where a group is joined. X1 = COc1ccc2c3c1O[C@H]1C(O*)=CC[C@H]4[C@@H](C2)N(C)CC[C@]314

Legend:
[1] = Oral pharmacokinetics in rats, plasma d-amphetamine by ELISA; details: for Percent AUC / Percent Cmax: Oral; for Bioequivalence with amphetamine: rat, oral
[2] = in vivo; cited from earlier work
[3] = Intranasal bioavailability of hydrocodone conjugates in rats, LC/MS/MS; details: intranasal, 1 mg/kg dose; for AUC (ng/ml h) 0-1 h / Cmax: hydrocodone plus hydromorphone; for Percent HC (AUC) / Percent HC (Cmax): relative to hydrocodone bitartrate
[4] = Intravenous bioavailability of hydrocodone conjugates in rats, LC/MS/MS; details: intravenous, 1 mg/kg dose
[5] = Oral bioavailability of hydrocodone conjugates in rats, LC/MS/MS; details: for AUC (ng/ml h) 0-8 h / Cmax: hydrocodone plus hydromorphone; for Percent HC (AUC) / Percent HC (Cmax): relative to hydrocodone bitartrate
[6] = relative to amphetamine (first value where two are given)
[7] = relative to amphetamine, second of two values printed in the cell
[8] = relative to hydrocodone bitartrate

Compound: CC(Cc1ccccc1)NC(=O)CNC(=O)[C@@H](N)CCCCN (some centres unmarked) [KG-Amp]
- Percent AUC [1, 6]: 69%
- Percent Cmax [1, 6]: 71%

Compound: CC(C)CC(N)C(=O)NC(C)Cc1ccccc1 [L-Amp]
- Percent AUC [1, 6]: 65%
- Percent Cmax [1, 6]: 81%

Compound: CC(C)C[C@H](N)C(=O)N[C@@H](CCC(=O)O)C(=O)NC(C)Cc1ccccc1 (some centres unmarked) [LE-Amp]
- Percent AUC [1, 6]: 40%
- Percent Cmax [1, 6]: 28%

Compound: COc1ccc2c3c1O[C@H]1C(=O)CC[C@@]4(O)[C@@H](C2)N(C)CC[C@]314 [Oxycodone]
- Therapeutic plasma concentration [2]: 10 to 100 ng/mL
- Toxic plasma concentration [2]: greater than 200 ng/mL

Compound: CC(Cc1ccccc1)NC(=O)C(N)Cc1ccccc1 (centres unmarked) [Phe-Amp, 2-amino-3-phenylpropanoic acid-(1-methyl-2-phenylethyl)-amide]
- Bioequivalence with amphetamine [1]: bioequivalent with amphetamine

Compound: CC(Cc1ccccc1)NC(=O)C(N)CO (centres unmarked) [S-Amp]
- Percent AUC [1, 6]: 79%
- Percent Cmax [1, 6]: 62%
- Percent AUC [1, 7]: 55%
- Percent Cmax [1, 7]: 75%

Compound: CC(Cc1ccccc1)NC(=O)C(N)CO (centres unmarked) [Ser-Amp, 2-amino-3-hydroxylpropanoic acid-(1-methyl-2-phenylethyl)-amide]
- Bioequivalence with amphetamine [1]: not bioequivalent with amphetamine

Compound: CC[C@H](C)[C@H](NC(=O)[C@H](Cc1ccccc1)NC(=O)[C@H](Cc1ccccc1)NC(=O)[C@H](Cc1ccc(O)cc1)NC(=O)[C@@H](N)Cc1ccc(O)cc1)C(=O)OC1=CC[C@H]2[C@H]3Cc4ccc(OC)c5c4[C@@]2(CCN3C)[C@H]1O5 [YYFFI[SEQ ID NO: 3]-HC] (H-YYFFI-X1)
- hydrocodone plus hydromorphone concentration ([3]; 5 Minutes): 28 ng/mL
- hydrocodone plus hydromorphone concentration ([3]; 15 Minutes): 27 ng/mL
- hydrocodone plus hydromorphone concentration ([3]; 30 Minutes): 16 ng/mL
- hydrocodone plus hydromorphone concentration ([3]; 60 Minutes): 21 ng/mL
- AUC (ng/ml h) 0-1 h [3]: 20 ng·h/mL
- Cmax [3]: 28 ng/mL
- Percent HC (AUC) [3]: 100%
- Percent HC (Cmax) [3]: 5%

Compound: CC[C@H](C)[C@H](NC(=O)[C@H](Cc1ccc(O)cc1)NC(=O)[C@@H](N)Cc1ccc(O)cc1)C(=O)OC1=CC[C@H]2[C@H]3Cc4ccc(OC)c5c4[C@@]2(CCN3C)[C@H]1O5 [YYI-HC, Tyr-Tyr-Ile-Hydrocodone]
- hydrocodone plus hydromorphone concentration ([3]; 5 Minutes): 31 ng/mL
- hydrocodone plus hydromorphone concentration ([3]; 15 Minutes): 17 ng/mL
- hydrocodone plus hydromorphone concentration ([3]; 30 Minutes): 12 ng/mL
- hydrocodone plus hydromorphone concentration ([3]; 60 Minutes): 2 ng/mL
- AUC (ng/ml h) 0-1 h [3]: 12 ng·h/mL
- Cmax [3]: 31 ng/mL
- Percent HC (AUC) [3]: 4%
- Percent HC (Cmax) [3]: 6%
- hydrocodone plus hydromorphone concentration ([4]; 5 Minutes): 9 ng/mL
- hydrocodone plus hydromorphone concentration ([4]; 15 Minutes): 13 ng/mL
- hydrocodone plus hydromorphone concentration ([4]; 30 Minutes): 13 ng/mL
- hydrocodone plus hydromorphone concentration ([4]; 60 Minutes): 3 ng/mL
- AUC (ng/ml h) 0-1 h ([4]; hydrocodone plus hydromorphone): 10 ng·h/mL
- Cmax ([4]; hydrocodone plus hydromorphone): 13 ng/mL
- Percent HC (AUC) [4, 8]: 7%
- Percent HC (Cmax) [4, 8]: 6%
- Percent Decrease 1 mg/kg vs. 5 mg/kg AUC ([5]; oral bioavailability): 41%
- Percent Decrease 1 mg/kg vs. 5 mg/kg Cmax ([5]; oral bioavailability): 60%
- hydrocodone plus hydromorphone concentration ([5]; oral, 1 mg/kg dose, 0.5 Hours): 9.2 ng/mL
- hydrocodone plus hydromorphone concentration ([5]; oral, 1 mg/kg dose, 1.5 Hours): 4.3 ng/mL
- hydrocodone plus hydromorphone concentration ([5]; oral, 1 mg/kg dose, 3 Hours): 1.5 ng/mL
- hydrocodone plus hydromorphone concentration ([5]; oral, 1 mg/kg dose, 5 Hours): 1.1 ng/mL
- hydrocodone plus hydromorphone concentration ([5]; oral, 1 mg/kg dose, 8 Hours): 1.8 ng/mL
- AUC (ng/ml h) 0-8 h ([5]; oral, 1 mg/kg dose): 20.4 ng·h/mL
- Cmax ([5]; oral, 1 mg/kg dose): 9.2 ng/mL
- Percent HC (AUC) ([5]; oral, 1 mg/kg dose): 78%
- Percent HC (Cmax) ([5]; oral, 1 mg/kg dose): 100%
- hydrocodone plus hydromorphone concentration ([5]; oral, 5 mg/kg dose, 0.5 Hours): 15 ng/mL
- hydrocodone plus hydromorphone concentration ([5]; oral, 5 mg/kg dose, 1.5 Hours): 6.3 ng/mL
- hydrocodone plus hydromorphone concentration ([5]; oral, 5 mg/kg dose, 3 Hours): 3.3 ng/mL
- hydrocodone plus hydromorphone concentration ([5]; oral, 5 mg/kg dose, 5 Hours): 1.6 ng/mL
- hydrocodone plus hydromorphone concentration ([5]; oral, 5 mg/kg dose, 8 Hours): 2.7 ng/mL
- AUC (ng/ml h) 0-8 h ([5]; oral, 5 mg/kg dose): 33 ng·h/mL
- Cmax ([5]; oral, 5 mg/kg dose): 15 ng/mL
- Percent HC (AUC) ([5]; oral, 5 mg/kg dose): 46%
- Percent HC (Cmax) ([5]; oral, 5 mg/kg dose): 41%
- Peak levels and bioavailability ([5]; rat, oral, 5 mg/kg): substantially decreased
